Experimental data taken from patent US20160340421A1 (Regeneron, published 2016).

T1: Human GDF8 homodimer (mature human Growth and Differentiation Factor-8) (human, UniProt O14793 267-375)
T1 sequence: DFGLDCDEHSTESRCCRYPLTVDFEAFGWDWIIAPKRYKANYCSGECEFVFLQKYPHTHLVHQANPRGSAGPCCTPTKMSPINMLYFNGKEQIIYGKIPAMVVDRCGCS

T2: hGDF11 homodimer (human, UniProt O95390 299-407)
T2 sequence (looked up): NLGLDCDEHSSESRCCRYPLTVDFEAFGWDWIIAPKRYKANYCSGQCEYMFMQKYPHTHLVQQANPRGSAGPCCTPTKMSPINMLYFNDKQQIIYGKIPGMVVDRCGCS

B1: 20B12 (antibody, V domains shown)
VH: EVQLLESGGGLVQPGGSLRLSCAGSGITFSSYAMSWVRQAPGKGLEWVSAISGNGGTTNYADSVKGRFTISRDNSKNTLYLQMNSLRAEDTAVYYCAKERILTSSWTRYGIMDVWGQGTTVTVSS
VL: EIVMTQSPATLSMSPGERATLSCRASQSVSSNLAWYQQKPGQAPRLLIYGASTRATGIPARFSGSGSGTEFTLTISSLQSEDFAVYYCQQYNNWPLTFGGGTKLEIK
B2: 1A2-hIgG1 (antibody, V domains shown)
VH: EVQLLESGGGLVQPGGSLRLSCAASGFTSITYAMSWVRQAPGKGLEWVSAISVSGTNTYYADSVKGRFTISRDKSKNMLYLQMNSLRAEDTAVYYCAKDLLHNWKYGTFDIWGQGTMVTVSS
VL: EIVMTQSPATLSVSPGERATLSCRASQSVDSNLVWYQQKPGQVPRLLIYGASTRATGIPARFSGSGSGTEFTLTISSLQSEDFAVYYCQQYNKWPLTFGGGTKVEIK
notes: variable domains of 1A2; also called 1A2-hlgG1
B3: 4E3-7 (antibody, V domains shown)
VH: EVQLLESGGGLVQPGGSLRLSCVASRFTFSSNAMSWVRQAPGTGLEWVSAITGSGSRTYYADSVKGRFTISRDNSKNTVYLQMNSLRGEDTAVYYCAKDQGGTWNYGDFDYWGQGTLVTVSS
VL: EIVMTQSPATLSVSPGERATLSCRASQSVSSNLAWYQQKPGQAPRLLIYGASTRATGLPARFSGSGSGTDFTLTISSLQSEDFAVYYCQQYNNWPLTFGGGTKVEIK
B4: 4B9 (antibody, V domains shown)
VH: EVQLLESGGGLVQPGGSLRLSCAASGFTSITYAMSWVRQAPGKGLEWVSAISVSGTNTYYADSVKGRFTISRDKSKNMLYLQMNSLRAEDTAVYYCAKDLLHNWKYGTFDIWGQGTMVTVSS
VL: EIVMTQSPATLSVSPGERATLSCRASQSVDSNLVWYQQKPGQVPRLLIYGASTRATGIPARFSGSGSGTEFTLTISSLQSEDFAVYYCQQYNKWPLTFGGGTKVEIK
B5: 1A2-hIgG (antibody, V domains shown)
VH: EVQLLESGGGLVQPGGSLRLSCAASGFTSITYAMSWVRQAPGKGLEWVSAISVSGTNTYYADSVKGRFTISRDKSKNMLYLQMNSLRAEDTAVYYCAKDLLHNWKYGTFDIWGQGTMVTVSS
VL: EIVMTQSPATLSVSPGERATLSCRASQSVDSNLVWYQQKPGQVPRLLIYGASTRATGIPARFSGSGSGTEFTLTISSLQSEDFAVYYCQQYNKWPLTFGGGTKVEIK
notes: variable domains of 1A2
B6: 21-E5 (antibody, V domains shown)
VH: QVQLVESGPGLVKPSETLSLTCTVYGGSISSGNYYWGWIRQPPGKGLEWIGTIYYSGSAYYNPSLKSRVTMSVDTSKNQFSLKLSSVTAADTAVYYCVRDYYDSSGHYYNWFDPWGQGTTVTVSS
VL: AIQMTQSPSSLSASVGDRVTITCRASQDIRHDLGWYQQKPGKAPKRLIYAASSLQSGVPSRFSGSGSGTEFTLTISSLQPEDFATYYCLQHNTYPWTFGQGTKVEIKR
B7: 21-B9 (antibody, V domains shown)
VH: QVQLVQSGPGLVKPSETLSLTCTVSGGSISNSNYYWGWIRQPPGKGLEWIGTTYYSGTTYYNPSLKSRVTISVDTSKNQFSLKLSSVTAADTAVYYCARDYYDSSGYYYNWFDPWGQGTTVTVSS
VL: DIQLTQSPSSLSASVGDRVTITCRASQDIRNDLGWYQQKPGKAPKRLIYAASSLQSGVPSRFSGSGSGTEFSLTLSSLQPEDFATYFCLQHHIYPWTFGQGTKLEIKR
B8: 21-E9 (antibody, V domains shown)
VH: EVQLVQLGPGLVKPSETLSLTCTVSGGSISNSNYYWGWIRQPPGKGLEWIGTTYYSGTTYYNPSLKSRVTISVDTSKNQFSLKLSSVTAADTAVYYCARDYYDSSGYYYNWFDPWGQGTTVTVSS
VL: AIQMTQSPSSLSASVGDRVTITCRASQDIRNDLGWYQQKPGKAPKRLIYAASSLQSGVPSRFSGSGSGTEFSLTLSSLQPEDFATYFCLQHHIYPWTFGQGTKVEIKR
B9: 8D12-1 (antibody, V domains shown)
VH: QVQLVESGGGVVQPGRSLRLSCAASGFTFSRYGIHWVRQAPGKGLEWVAVISYDGSDEYYVDSVKGRFSISRDNSKNTLYLQMNSLRPADSAVYYCVKGDLELGFDYWGQGTLVTVSS
VL: DIVMTQAAPSIPVIPGESVSMSCRSSKSLLYSNGHTYVYWFVQRPGQSPQLLIYRMSNLASGVPDRFSGSGSGTAFTLRISRVEAEDVGVYYCMQNLEFPLTFGAGTKLELK
notes: probably the same antibody as 8D12
B10: 3A4-3 (antibody, V domains shown)
VH: QVQLVQSGGGLVKPGGSLRLSCAASGFIFNTYTMNWVRQAPGKGLEWVSSITSRGTYIFYSDSLKGRFTISRDNANNSLFLQMNSLRVEDTAVYYCSRDRGYTFGPDYWGQGTLVTVSS
VL: DIQMTQSPSSLSASVGDRVTITCRASQDIRNDLGWYQQKPGKAPKGLIYAASSLQSGVPSRFSGSGSGTEFTLTISSLQPEDFATYHCLHYDFHPRTFGQGTKVEIK
B11: 58C8 (antibody, V domains shown)
VH: EVQLLESGGGLVQPGGSLRLSCAASGFTSITYAMSWVRQAPGKGLEWVSAISVSGTNTYYADSVKGRFTISRDKSKNMLYLQMNSLRAEDTAVYYCAKDLLHNWKYGTFDIWGQGTMVTVSS
VL: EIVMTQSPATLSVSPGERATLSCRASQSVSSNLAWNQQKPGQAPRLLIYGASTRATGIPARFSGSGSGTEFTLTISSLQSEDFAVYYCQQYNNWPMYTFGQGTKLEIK
B12: 21-A2 (antibody, V domains shown)
VH: QVQLVQSGGGLVQPGGSLRLSCAASGFTFNTYAISWVRQAPGKGLEWVSTITGSGYNTYYADSVKGRFTISRDNSKNTLYLQMSSLRAEDTAVFYCAKDSRYNWNYGIFDYWGQGTTVTVSS
VL: DIQMTQSPATLSVSPGERATLSCRASQSVSSNLAWYHQKPGQAPRLLIYGVSTRATGIPARFSGNGSGTEFTLTISSLQSEDFAVYYCQQHNNWPLTFGGGTKVEIKR
B13: 4G3-25 (antibody, V domains shown)
VH: QVQLVESGGGVVQPGRSLRLSCVVSGFNFSRNGIHWVRQAPGKGLEWVAVISYDGRNKFYVESVKGRFTISRDNSKNTLYLQMNSLRVEDTAVYYCAKSSIGGFFEYWGQGTLVTVSS
VL: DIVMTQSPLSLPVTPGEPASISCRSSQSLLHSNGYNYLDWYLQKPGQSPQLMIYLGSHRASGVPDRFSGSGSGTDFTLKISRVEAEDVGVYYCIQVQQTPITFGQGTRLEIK

Key:
[1] = target: T1, Human GDF8 homodimer (mature human …); assay: cell-based or functional assay
hGDF11 homodimer [2] = target: T2, hGDF11 homodimer; assay: cell-based or functional assay
[3] = target: T1, Human GDF8 homodimer (mature human …); assay: SPR, antibody captured, 25 nM antigen
Protocol: (§1) Equilibrium dissociation constants (KD values) for antigen binding to selected antibodies were determined by surface kinetics using a real-time biosensor surface plasmon resonance assay (BIACORE™ 2000). Each selected antibody was captured on either a goat anti-mouse IgG polyclonal antibody surface or a goat anti-hFc polyclonal antibody (Jackson Immuno Research Lab) surface created through direct chemical coupling to a BIACORE™ chip to form a captured antibody surface. Human GDF8 homodimer, hGDF11 homodimer, or hGDF5 homodimer at 25 nM was injected over the captured antibody surfaces, and antigen-antibody binding and dissociation were monitored in real time at room temperature. Kinetic analysis was performed to calculate KD, dissociation rate constants (kd), association rate constants (ka) and half-life of antigen/antibody complex dissociation (Table 2).

hGDF11 homodimer [4] = target: T2, hGDF11 homodimer; assay: SPR, antibody captured, 25 nM antigen
Protocol: as §1

[5] = target: T1, Human GDF8 homodimer (mature human …); assay: SPR Biacore T100, captured on anti-hFc, 25°C
Protocol: (§2) Additional antigen binding experiments were conducted in which GDF8 and GDF11 were applied over a surface of selected anti-GDF8 antibodies and control antibodies at 25° C. and 37° C. Equilibrium dissociation constants (KD values) for antigen binding to selected antibodies were determined by surface kinetics using a real-time biosensor surface plasmon resonance assay (BIACORE™ T100). […] Various concentrations (2.5-0.625 nM, 2-fold dilutions) of hGDF8 homodimer or hGDF11 homodimer (or in some experiments, Activin A) were injected over the captured antibody surfaces, and antigen-antibody binding and dissociation were monitored in real time. Kinetic analysis was performed to calculate KD, dissociation rate constants (kd), association rate constants (ka) and half-life of antigen/antibody complex dissociation. (NB=no binding observed).

[6] = target: T1, Human GDF8 homodimer (mature human …); assay: SPR Biacore T100, captured on anti-hFc, 37°C
Protocol: as §2

[7] = target: T1, Human GDF8 homodimer (mature human …); assay: SPR, antibody captured, buffer without BSA
Protocol: as §1

hGDF11 homodimer [8] = target: T2, hGDF11 homodimer; assay: SPR, antibody captured, buffer without BSA
Protocol: as §1

[9] = target: T1, Human GDF8 homodimer (mature human …); assay: cell-based or functional assay; remark: listed apart in the source
hGDF11 homodimer [10] = target: T2, hGDF11 homodimer; assay: cell-based or functional assay; remark: listed apart in the source

Row | IC50, GDF8-inducible luciferase, A204/Smad2 cells, 0.8 nM GDF8 [1] | IC50, GDF11-inducible luciferase, A204/Smad2 cells, 0.8 nM GDF11 (hGDF11 homodimer [2]) | Kd [3] | T1/2 [3] | Kd (hGDF11 homodimer [4]) | T1/2 (hGDF11 homodimer [4]) | also measured | Binder
1 | > 20 nM | > 25 nM | 0.86 nM | 39 min | 2.08 nM | 2 min | – | B1
2 | – | – | – | – | – | – | Kd [5]: 0.0623 nM; T1/2 [5]: 96 min; Kd [6]: 0.0462 nM; T1/2 [6]: 39 min | B2
3 | 10.4 nM | > 25 nM | 1.89 nM | 27 min | 1.33 nM | 29 min | – | B3
4 | 0.47 nM | > 25 nM | 0.55 nM | 55 min | 1.09 nM | 34 min | – | B4
5 | – | – | – | – | – | – | Kd [7]: 0.006 nM; T1/2 [7]: 340 min; Kd (hGDF11 homodimer [8]): 0.64 nM; T1/2 (hGDF11 homodimer [8]): 6 min | B5
6 | 8.5 nM | 35 nM | 0.26 nM | 138 min | 0.12 nM | 116 min | IC50, luciferase bioassay, 0.5 nM GDF8 [9]: 2.34 nM; IC50, luciferase bioassay, 1 nM GDF8 [9]: 2.98 nM; IC50, luciferase bioassay, 0.4 nM GDF11 (hGDF11 homodimer [10]): 6.9 nM; IC50, luciferase bioassay, 0.8 nM GDF11 (hGDF11 homodimer [10]): 10.5 nM | B6
7 | 0.62 nM | 1.2 nM | 0.12 nM | 126 min | 0.064 nM | 133 min | – | B7
8 | 0.99 nM | 1.2 nM | 0.14 nM | 155 min | 0.07 nM | 221 min | – | B8
9 | 2.4 nM | > 25 nM | 0.66 nM | 95 min | 1.87 nM | 23 min | – | B9
10 | 3.1 nM | > 20 nM | 1.07 nM | 137 min | 0.51 nM | 71 min | – | B10
11 | 1.8 nM | > 25 nM | 0.62 nM | 56 min | 0.44 nM | 30 min | – | B11
12 | 9.7 nM | > 10 nM | 0.4 nM | 78 min | 0.9 nM | 21 min | – | B12
13 | > 25 nM | > 25 nM | 3.9 nM | 25 min | 1.41 nM | 39 min | – | B13
